# Measurements published in patent US20240321457A1 (University of California, published 2024).
# T1: UBE2N (human, UniProt P61088 1-152)
# T1 construct: endogenous prey from cell lysate; also called UBC13
# T1 sequence (looked up): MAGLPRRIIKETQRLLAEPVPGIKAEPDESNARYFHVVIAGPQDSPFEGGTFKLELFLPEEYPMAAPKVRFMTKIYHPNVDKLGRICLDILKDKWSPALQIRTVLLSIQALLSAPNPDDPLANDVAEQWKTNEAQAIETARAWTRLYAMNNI
# Target: T1, UBE2N
# Experiment: AP-MS, PPI score from compPASS and SAINTexpress, MDA-MB-231 cells
# Experimental: For AP-MS experiments, samples were resuspended in 15 μL of MS loading buffer (4% formic acid, 2% acetonitrile) and 2 μL were separated by a reversed-phase gradient over a nanoflow 75 μm ID×25 cm long picotip column packed with 1.9 μM C18 particles (Dr. Maisch). Peptides were directly injected over the course of a 75 min acquisition into a Q-Exactive Plus mass spectrometer (Thermo), or over the course of a 90 min acquisition into a Orbitrap Elite mass spectrometer. […] Peptides and proteins were filtered to 1% false discovery rate in MaxQuant, and identified proteins were then subjected to protein-protein interaction scoring.
# All PPI scoring was performed separately for each cell line. For SAINTexpress, control samples in which bait protein was not induced by addition of doxycycline were used. For CompPASS, a stats table representing all WT baits was used. After scoring, the CompPASS WD and Z-score were normalized within a given bait for each cell line. The total list of candidate PPIs was filtered to those that met the following criteria: SAINTexpress BFDR=<0.05, WD percentile by bait>=0.95, and Z-score percentile by bait≤=0.95. PPIs passing all 3 of these criteria were considered to be high-confidence PPIs. To enable visualization and analysis of PPIs by confidence score among these 3 criteria, a PPI score was calculated: [(WD percentile by bait+Z-score percentile by bait)/2)+(1−BFDR)]/2.
row,PPI score,Binder
1,< 0.6,"BRCA1 C61G (enzyme, human, UniProt P38398 1-1863, looked up, 3xFLAG-tagged bait; also called RING domain mutant C61G) MDLSALRVEEVQNVINAMQKILECPICLELIKEPVSTKCDHIFCKFCMLKLLNQKKGPSQGPLCKNDITKRSLQESTRFSQLVEELLKIICAFQLDTGLEYANSYNFAKKENNSPEHLKDEVSIIQSMGYRNRAKRLLQSEPENPSLQETSLSVQLSNLGTVRTLRTKQRIQPQKTSVYIELGSDSSEDTVNKATYCSVGDQELLQITPQGTRDEISLDSAKKAACEFSETDVTNTEHHQPSNNDLNTTEKRAAERHPEKYQGSSVSNLHVEPCGTNTHASSLQHENSSLLLTKDRMNVEKAEFCNKSKQPGLARSQHNRWAGSKETCNDRRTPSTEKKVDLNADPLCERKEWNKQKLPCSENPRDTEDVPWITLNSSIQKVNEWFSRSDELLGSDDSHDGESESNAKVADVLDVLNEVDEYSGSSEKIDLLASDPHEALICKSERVHSKSVESNIEDKIFGKTYRKKASLPNLSHVTENLIIGAFVTEPQIIQERPLTNKLKRKRRPTSGLHPEDFIKKADLAVQKTPEMINQGTNQTEQNGQVMNITNSGHENKTKGDSIQNEKNPNPIESLEKESAFKTKAEPISSSISNMELELNIHNSKAPKKNRLRRKSSTRHIHALELVVSRNLSPPNCTELQIDSCSSSEEIKKKKYNQMPVRHSRNLQLMEGKEPATGAKKSNKPNEQTSKRHDSDTFPELKLTNAPGSFTKCSNTSELKEFVNPSLPREEKEEKLETVKVSNNAEDPKDLMLSGERVLQTERSVESSSISLVPGTDYGTQESISLLEVSTLGKAKTEPNKCVSQCAAFENPKGLIHGCSKDNRNDTEGFKYPLGHEVNHSRETSIEMEESELDAQYLQNTFKVSKRQSFAPFSNPGNAEEECATFSAHSGSLKKQSPKVTFECEQKEENQGKNESNIKPVQTVNITAGFPVVGQKDKPVDNAKCSIKGGSRFCLSSQFRGNETGLITPNKHGLLQNPYRIPPLFPIKSFVKTKCKKNLLEENFEEHSMSPEREMGNENIPSTVSTISRNNIRENVFKEASSSNINEVGSSTNEVGSSINEIGSSDENIQAELGRNRGPKLNAMLRLGVLQPEVYKQSLPGSNCKHPEIKKQEYEEVVQTVNTDFSPYLISDNLEQPMGSSHASQVCSETPDDLLDDGEIKEDTSFAENDIKESSAVFSKSVQKGELSRSPSPFTHTHLAQGYRRGAKKLESSEENLSSEDEELPCFQHLLFGKVNNIPSQSTRHSTVATECLSKNTEENLLSLKNSLNDCSNQVILAKASQEHHLSEETKCSASLFSSQCSELEDLTANTNTQDPFLIGSSKQMRHQSESQGVGLSDKELVSDDEERGTGLEENNQEEQSMDSNLGEAASGCESETSVSEDCSGLSSQSDILTTQQRDTMQHNLIKLQQEMAELEAVLEQHGSQPSNSYPSIISDSSALEDLRNPEQSTSEKAVLTSQKSSEYPISQNPEGLSADKFEVSADSSTSKNKEPGVERSSPSKCPSLDDRWYMHSCSGSLQNRNYPSQEELIKVVDVEEQQLEESGPHDLTETSYLPRQDLEGTPYLESGISLFSDDPESDPSEDRAPESARVGNIPSSTSALKVPQLKVAESAQSPAAAHTTDTAGYNAMEESVSREKPELTASTERVNKRMSMVVSGLTPEEFMLVYKFARKHHITLTNLITEETTHVVMKTDAEFVCERTLKYFLGIAGGKWVVSYFWVTQSIKERKMLNEHDFEVRGDVVNGRNHQGPKRARESQDRKIFRGLEICCYGPFTNMPTDQLEWMVQLCGASVVKELSSFTLGTGVHPIVVVQPDAWTEDNGFHAIGQMCEAPVVTREWVLDSVALYQCQELDTYLIPQIPHSHY"
2,< 0.6,"BRCA1 M1775R (enzyme, human, UniProt P38398 1-1863, looked up, 3xFLAG-tagged bait; also called BRCT domain mutant M1775R) MDLSALRVEEVQNVINAMQKILECPICLELIKEPVSTKCDHIFCKFCMLKLLNQKKGPSQCPLCKNDITKRSLQESTRFSQLVEELLKIICAFQLDTGLEYANSYNFAKKENNSPEHLKDEVSIIQSMGYRNRAKRLLQSEPENPSLQETSLSVQLSNLGTVRTLRTKQRIQPQKTSVYIELGSDSSEDTVNKATYCSVGDQELLQITPQGTRDEISLDSAKKAACEFSETDVTNTEHHQPSNNDLNTTEKRAAERHPEKYQGSSVSNLHVEPCGTNTHASSLQHENSSLLLTKDRMNVEKAEFCNKSKQPGLARSQHNRWAGSKETCNDRRTPSTEKKVDLNADPLCERKEWNKQKLPCSENPRDTEDVPWITLNSSIQKVNEWFSRSDELLGSDDSHDGESESNAKVADVLDVLNEVDEYSGSSEKIDLLASDPHEALICKSERVHSKSVESNIEDKIFGKTYRKKASLPNLSHVTENLIIGAFVTEPQIIQERPLTNKLKRKRRPTSGLHPEDFIKKADLAVQKTPEMINQGTNQTEQNGQVMNITNSGHENKTKGDSIQNEKNPNPIESLEKESAFKTKAEPISSSISNMELELNIHNSKAPKKNRLRRKSSTRHIHALELVVSRNLSPPNCTELQIDSCSSSEEIKKKKYNQMPVRHSRNLQLMEGKEPATGAKKSNKPNEQTSKRHDSDTFPELKLTNAPGSFTKCSNTSELKEFVNPSLPREEKEEKLETVKVSNNAEDPKDLMLSGERVLQTERSVESSSISLVPGTDYGTQESISLLEVSTLGKAKTEPNKCVSQCAAFENPKGLIHGCSKDNRNDTEGFKYPLGHEVNHSRETSIEMEESELDAQYLQNTFKVSKRQSFAPFSNPGNAEEECATFSAHSGSLKKQSPKVTFECEQKEENQGKNESNIKPVQTVNITAGFPVVGQKDKPVDNAKCSIKGGSRFCLSSQFRGNETGLITPNKHGLLQNPYRIPPLFPIKSFVKTKCKKNLLEENFEEHSMSPEREMGNENIPSTVSTISRNNIRENVFKEASSSNINEVGSSTNEVGSSINEIGSSDENIQAELGRNRGPKLNAMLRLGVLQPEVYKQSLPGSNCKHPEIKKQEYEEVVQTVNTDFSPYLISDNLEQPMGSSHASQVCSETPDDLLDDGEIKEDTSFAENDIKESSAVFSKSVQKGELSRSPSPFTHTHLAQGYRRGAKKLESSEENLSSEDEELPCFQHLLFGKVNNIPSQSTRHSTVATECLSKNTEENLLSLKNSLNDCSNQVILAKASQEHHLSEETKCSASLFSSQCSELEDLTANTNTQDPFLIGSSKQMRHQSESQGVGLSDKELVSDDEERGTGLEENNQEEQSMDSNLGEAASGCESETSVSEDCSGLSSQSDILTTQQRDTMQHNLIKLQQEMAELEAVLEQHGSQPSNSYPSIISDSSALEDLRNPEQSTSEKAVLTSQKSSEYPISQNPEGLSADKFEVSADSSTSKNKEPGVERSSPSKCPSLDDRWYMHSCSGSLQNRNYPSQEELIKVVDVEEQQLEESGPHDLTETSYLPRQDLEGTPYLESGISLFSDDPESDPSEDRAPESARVGNIPSSTSALKVPQLKVAESAQSPAAAHTTDTAGYNAMEESVSREKPELTASTERVNKRMSMVVSGLTPEEFMLVYKFARKHHITLTNLITEETTHVVMKTDAEFVCERTLKYFLGIAGGKWVVSYFWVTQSIKERKMLNEHDFEVRGDVVNGRNHQGPKRARESQDRKIFRGLEICCYGPFTNRPTDQLEWMVQLCGASVVKELSSFTLGTGVHPIVVVQPDAWTEDNGFHAIGQMCEAPVVTREWVLDSVALYQCQELDTYLIPQIPHSHY"
3,< 0.6,"BRCA1 R71G (enzyme, human, UniProt P38398 1-1863, looked up, 3xFLAG-tagged bait; also called RING domain mutant R71G) MDLSALRVEEVQNVINAMQKILECPICLELIKEPVSTKCDHIFCKFCMLKLLNQKKGPSQCPLCKNDITKGSLQESTRFSQLVEELLKIICAFQLDTGLEYANSYNFAKKENNSPEHLKDEVSIIQSMGYRNRAKRLLQSEPENPSLQETSLSVQLSNLGTVRTLRTKQRIQPQKTSVYIELGSDSSEDTVNKATYCSVGDQELLQITPQGTRDEISLDSAKKAACEFSETDVTNTEHHQPSNNDLNTTEKRAAERHPEKYQGSSVSNLHVEPCGTNTHASSLQHENSSLLLTKDRMNVEKAEFCNKSKQPGLARSQHNRWAGSKETCNDRRTPSTEKKVDLNADPLCERKEWNKQKLPCSENPRDTEDVPWITLNSSIQKVNEWFSRSDELLGSDDSHDGESESNAKVADVLDVLNEVDEYSGSSEKIDLLASDPHEALICKSERVHSKSVESNIEDKIFGKTYRKKASLPNLSHVTENLIIGAFVTEPQIIQERPLTNKLKRKRRPTSGLHPEDFIKKADLAVQKTPEMINQGTNQTEQNGQVMNITNSGHENKTKGDSIQNEKNPNPIESLEKESAFKTKAEPISSSISNMELELNIHNSKAPKKNRLRRKSSTRHIHALELVVSRNLSPPNCTELQIDSCSSSEEIKKKKYNQMPVRHSRNLQLMEGKEPATGAKKSNKPNEQTSKRHDSDTFPELKLTNAPGSFTKCSNTSELKEFVNPSLPREEKEEKLETVKVSNNAEDPKDLMLSGERVLQTERSVESSSISLVPGTDYGTQESISLLEVSTLGKAKTEPNKCVSQCAAFENPKGLIHGCSKDNRNDTEGFKYPLGHEVNHSRETSIEMEESELDAQYLQNTFKVSKRQSFAPFSNPGNAEEECATFSAHSGSLKKQSPKVTFECEQKEENQGKNESNIKPVQTVNITAGFPVVGQKDKPVDNAKCSIKGGSRFCLSSQFRGNETGLITPNKHGLLQNPYRIPPLFPIKSFVKTKCKKNLLEENFEEHSMSPEREMGNENIPSTVSTISRNNIRENVFKEASSSNINEVGSSTNEVGSSINEIGSSDENIQAELGRNRGPKLNAMLRLGVLQPEVYKQSLPGSNCKHPEIKKQEYEEVVQTVNTDFSPYLISDNLEQPMGSSHASQVCSETPDDLLDDGEIKEDTSFAENDIKESSAVFSKSVQKGELSRSPSPFTHTHLAQGYRRGAKKLESSEENLSSEDEELPCFQHLLFGKVNNIPSQSTRHSTVATECLSKNTEENLLSLKNSLNDCSNQVILAKASQEHHLSEETKCSASLFSSQCSELEDLTANTNTQDPFLIGSSKQMRHQSESQGVGLSDKELVSDDEERGTGLEENNQEEQSMDSNLGEAASGCESETSVSEDCSGLSSQSDILTTQQRDTMQHNLIKLQQEMAELEAVLEQHGSQPSNSYPSIISDSSALEDLRNPEQSTSEKAVLTSQKSSEYPISQNPEGLSADKFEVSADSSTSKNKEPGVERSSPSKCPSLDDRWYMHSCSGSLQNRNYPSQEELIKVVDVEEQQLEESGPHDLTETSYLPRQDLEGTPYLESGISLFSDDPESDPSEDRAPESARVGNIPSSTSALKVPQLKVAESAQSPAAAHTTDTAGYNAMEESVSREKPELTASTERVNKRMSMVVSGLTPEEFMLVYKFARKHHITLTNLITEETTHVVMKTDAEFVCERTLKYFLGIAGGKWVVSYFWVTQSIKERKMLNEHDFEVRGDVVNGRNHQGPKRARESQDRKIFRGLEICCYGPFTNMPTDQLEWMVQLCGASVVKELSSFTLGTGVHPIVVVQPDAWTEDNGFHAIGQMCEAPVVTREWVLDSVALYQCQELDTYLIPQIPHSHY"
